Paper PMC5325477, “The single nucleotide variant rs12722489 determines differential estrogen receptor binding and enhancer properties of an IL2RA intronic region”

B1: IL2RA rs12722489 A, 32 bp (dsDNA)
DNA 1: ACTTATCCAAGGATCTGAGTGGTCTTGGAGGG
DNA 2: CCCTCCAAGACCACTCAGATCCTTGGATAAGT

Key:
[1] = test system: ERα (endogenous, MT-2 nuclear extract) (human (MT-2 cells)); experiment: pull-down (anti-ERα, qPCR); details: normalized to 176 bp internal control DNA; EMSA: 10% glycerol, 80 mM KCl, 25 mM NaCl, 15 mM Tris pH 8.0, 0.18 mM EDTA, 1 mM MgCl2, 1.1 mM DTT, 50 uM Na3VO4, 33.3 ug/ml BSA, 150 ug/ml poly-dIdC, 20 min …
[2] = target: ERα (purified recombinant) (human, UniProt P03372 1-595); experiment: EMSA; below detection limit; EMSA: 10% glycerol, 80 mM KCl, 25 mM NaCl, 15 mM Tris pH 8.0, 0.18 mM EDTA, 1 mM MgCl2, 1.1 mM DTT, 50 uM Na3VO4, 33.3 ug/ml BSA, 150 ug/ml poly-dIdC, 20 min room temperature, gel at 4 C; pull-down: 60 mM KCl, 12 mM HEPES pH 8.0, 4 mM Tris pH 8.0, 0.5 mM EDTA, 5% glycerol, 1 mM DTT, salmon sperm DNA, on ice, then RIPA buffer, 4 C overnight; details: protein: recombinant; chain copies: 2; label: 32P (dATP, Klenow fill-in); blunt after Klenow fill-in (annealed oligos of 26 and 24 nt)
Sequence of ERα (purified recombinant) (P03372 whole entry): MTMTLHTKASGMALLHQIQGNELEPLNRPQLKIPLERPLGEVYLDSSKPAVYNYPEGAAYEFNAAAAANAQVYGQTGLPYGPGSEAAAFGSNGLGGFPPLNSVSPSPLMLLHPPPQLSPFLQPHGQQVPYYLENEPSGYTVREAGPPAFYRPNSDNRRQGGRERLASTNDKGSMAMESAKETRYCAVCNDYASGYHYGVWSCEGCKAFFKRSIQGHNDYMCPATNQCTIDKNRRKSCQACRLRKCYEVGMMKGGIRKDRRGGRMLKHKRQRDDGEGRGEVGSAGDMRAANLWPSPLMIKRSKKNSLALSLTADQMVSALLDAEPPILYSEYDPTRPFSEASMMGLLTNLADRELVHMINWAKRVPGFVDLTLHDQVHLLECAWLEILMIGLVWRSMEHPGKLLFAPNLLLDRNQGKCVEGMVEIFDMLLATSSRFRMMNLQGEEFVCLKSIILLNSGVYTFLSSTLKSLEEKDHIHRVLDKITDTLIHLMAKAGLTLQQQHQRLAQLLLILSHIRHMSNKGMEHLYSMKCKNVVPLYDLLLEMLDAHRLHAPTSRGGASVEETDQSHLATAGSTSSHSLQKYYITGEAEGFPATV

Molecule | binding signal (fold vs A variant) [1] | binding result [2]
IL2RA rs12722489 G, 189 bp PCR | 2 | –
B1 | – | no binding
